{"source": "patent US5985836A", "about": "“Alpha-1 proteinase inhibitor binding peptides” (Bayer Corporation, priority 1998, dated 1999)", "key": {"A1PI [1]": {"biological_target": "T1, A1PI (Homo sapiens, UniProt P01009)", "T1 construct": "Human plasma is currently the only approved source of therapeutic AlPI", "T1 sequence (P01009 25-418)": "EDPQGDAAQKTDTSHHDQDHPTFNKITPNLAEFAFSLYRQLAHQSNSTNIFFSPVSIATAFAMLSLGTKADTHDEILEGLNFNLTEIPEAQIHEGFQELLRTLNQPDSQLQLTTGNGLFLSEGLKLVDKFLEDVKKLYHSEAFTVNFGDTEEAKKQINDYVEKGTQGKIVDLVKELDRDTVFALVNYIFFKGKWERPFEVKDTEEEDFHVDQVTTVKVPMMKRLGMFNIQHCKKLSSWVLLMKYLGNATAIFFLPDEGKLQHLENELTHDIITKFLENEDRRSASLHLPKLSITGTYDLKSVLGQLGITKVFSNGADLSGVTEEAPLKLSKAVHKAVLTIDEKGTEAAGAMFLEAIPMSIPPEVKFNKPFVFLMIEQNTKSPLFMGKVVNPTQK", "test": "A1PI binding on peptide-resin column, injection of 1 mg A1PI in equilibration buffer", "conditions": "for % of Total A1PI Eluted by Fraction (Based on Absorbance at 280 nm), 1M NaCl / % of Total A1PI Eluted by Fraction (Based on Absorbance at 280 nm), 2% Acetic Acid / % of Total A1PI Eluted by Fraction (Based on Absorbance at 280 nm), Flowthrough: 1 mg A1PI", "method_in_brief": "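Percent of total eluted A1PI per fraction (flowthrough, NaCl steps, 2% acetic acid) determined by A280 integration or immunonephelometry. Columns of peptide-derivatized A-Totda-Toyopearl resin (0.1 mmole/g) received 1 mg A1PI at 4 °C or 20 °C, flow 865 or 523 μl/min.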"}, "A1PI [2]": {"biological_target": "T1, A1PI", "test": "Purification of A1PI from Effluent II+III on peptide column, A1PI mass balance", "format": "binding", "conditions": "1 ml Eff. II+III, 4° C.", "method_in_brief": "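Mass balance per protein was determined over the load and each step eluate (1M NaCl, 3M NaCl, 2% acetic acid) of peptide columns challenged with 1 ml Effluent II+III. The feed contained 20% ethanol and 20-25 mg/ml hSA, the flow was 865 μl/min after a 10 min residence, and the temperature was 4° C.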"}, "[3]": {"conditions": "1 mg A1PI in equilibration buffer, 4° C."}, "[4]": {"conditions": "1 mg A1PI in equilibration buffer, 20° C."}, "[5]": {"conditions": "VIWLVR N-terminal point mutations, 4° C."}, "[6]": {"conditions": "A1PI, * as in Tables 4, 5 (below detection limit)"}, "[7]": {"conditions": "Table 11, * Below detection limit"}}, "note": "Ends that are not written are not given here."}
{"substance": "VIWLVR", "values": [{"measurement": "Percent A1PI Eluted by Fraction Based on Absorbance at 280 nm, 1M NaCl", "setting": "A1PI [1]; [3]", "value": 25, "unit": "%"}, {"measurement": "Percent A1PI Eluted by Fraction Based on Absorbance at 280 nm, 2% Acetic Acid", "setting": "A1PI [1]; [3]", "value": 30, "unit": "%"}, {"measurement": "Percent A1PI Eluted by Fraction Based on Absorbance at 280 nm, Flowthrough", "setting": "A1PI [1]; [3]", "value": 45, "unit": "%"}, {"measurement": "Percent A1PI Eluted by Fraction, 1M NaCl", "setting": "A1PI [1]; [4]", "value": 26, "unit": "%"}, {"measurement": "Percent A1PI Eluted by Fraction, 2% Acetic Acid", "setting": "A1PI [1]; [4]", "value": 66, "unit": "%"}, {"measurement": "Percent A1PI Eluted by Fraction, Flowthrough", "setting": "A1PI [1]; [4]", "value": 8, "unit": "%"}, {"measurement": "% of Total A1PI Eluted by Fraction (Based on Absorbance at 280 nm), 1M NaCl", "setting": "A1PI [1]; Trp position mutations, 4° C.", "value": 25, "unit": "%"}, {"measurement": "% of Total A1PI Eluted by Fraction (Based on Absorbance at 280 nm), 2% Acetic Acid", "setting": "A1PI [1]; Trp position mutations, 4° C.", "value": 30, "unit": "%"}, {"measurement": "% of Total A1PI Eluted by Fraction (Based on Absorbance at 280 nm), Flowthrough", "setting": "A1PI [1]; Trp position mutations, 4° C.", "value": 45, "unit": "%"}, {"measurement": "% of Total A1PI Eluted by Fraction (Based on Absorbance at 280 nm), 1M NaCl", "setting": "A1PI [1]; Trp position mutations, 20° C.", "value": 26, "unit": "%"}, {"measurement": "% of Total A1PI Eluted by Fraction (Based on Absorbance at 280 nm), 2% Acetic Acid", "setting": "A1PI [1]; Trp position mutations, 20° C.", "value": 66, "unit": "%"}, {"measurement": "% of Total A1PI Eluted by Fraction (Based on Absorbance at 280 nm), Flowthrough", "setting": "A1PI [1]; Trp position mutations, 20° C.", "value": 8, "unit": "%"}, {"measurement": "% of Total A1PI Eluted by Fraction (Based on Absorbance at 280 nm), 1M NaCl", "setting": "A1PI [1]; [5]", "value": 25, "unit": "%"}, {"measurement": "% of Total A1PI Eluted by Fraction (Based on Absorbance at 280 nm), 2% Acetic Acid", "setting": "A1PI [1]; [5]", "value": 30, "unit": "%"}, {"measurement": "% of Total A1PI Eluted by Fraction (Based on Absorbance at 280 nm), Flowthrough", "setting": "A1PI [1]; [5]", "value": 45, "unit": "%"}, {"measurement": "Percent Eluted by Fraction, 1M NaCl", "setting": "A1PI [2]; A1PI", "value": 9, "unit": "%"}, {"measurement": "Percent Eluted by Fraction, 2% Acetic Acid", "setting": "A1PI [2]; A1PI", "value": 43, "unit": "%"}, {"measurement": "Percent Eluted by Fraction, 3M NaCl", "setting": "A1PI [2]; A1PI", "value": 0, "unit": "%"}, {"measurement": "Percent Eluted by Fraction, Flow", "setting": "A1PI [2]; A1PI", "value": 48, "unit": "%"}, {"measurement": "Mass Protein per Eluate Fraction, 1M NaCl", "setting": "A1PI [2]; [6]", "value": 0.10, "unit": "mg"}, {"measurement": "Mass Protein per Eluate Fraction, 2% Acetic Acid", "setting": "A1PI [2]; [6]", "value": 0.51, "unit": "mg"}, {"measurement": "Mass Protein per Eluate Fraction, Flow", "setting": "A1PI [2]; [6]", "value": 0.58, "unit": "mg"}, {"measurement": "Mass A1PI per Eluate Fraction, 1M NaCl", "setting": "A1PI [2]; [7]", "value": 0.10, "unit": "mg"}, {"measurement": "Mass A1PI per Eluate Fraction, 2% Acetic Acid", "setting": "A1PI [2]; [7]", "value": 0.51, "unit": "mg"}, {"measurement": "Mass A1PI per Eluate Fraction, Flowthrough", "setting": "A1PI [2]; [7]", "value": 0.58, "unit": "mg"}, {"measurement": "Percent Eluted by Fraction, 1M NaCl", "setting": "A1PI [2]; Table 11, A1PI", "value": 9, "unit": "%"}, {"measurement": "Percent Eluted by Fraction, 2% Acetic Acid", "setting": "A1PI [2]; Table 11, A1PI", "value": 43, "unit": "%"}, {"measurement": "Percent Eluted by Fraction, Flowthrough", "setting": "A1PI [2]; Table 11, A1PI", "value": 48, "unit": "%"}]}
